In the experiment the target is murine EGFR (murine, UniProt Q01279 25-647, limits assumed). Briefly: not described (statement in the xenograft methods).

B1: P3X (antibody, V domains shown)
VH: QVQLVQSGAEVKKPGASVKVSCKASGYAFTSYGINWVRQAPGQGLEWMGWISAYNGNTYYAQKLRGRVTMTTDTSTSTAYMELRSLRSDDTAVYYCARDLGGYGSGSVPFDPWGQGTLVTVSS
VL: EIVMTQSPATLSVSPGERATLSCRASQSVSSNLAWYQQKPGQAPRLLIYGASTRATGIPARFSGSGSGTEFTLTISSLQSEDFAVYYCQDYRTWPRRVFGGGTKVEIK
notes: Fully human monoclonal antibody; Alexa Fluor 488-labelled in flow cytometry; also called P3X monoclonal antibody; third monoclonal antibody
As to B1, the binding result is “no binding”.

The values above are taken from patent US20160311908A1 (MERRIMACK PHARMACEUTICALS, published 2016).
